The values that follow come from patent US20250154265A1.

Test in all cases: cell-based or functional assay
Test [1] addresses EGFR L858R/T790M on H1975 cells (human) (UniProt P00533).
In test [2] the target is EGFR on H2073 cells (human) (UniProt P00533).
For test [3], the target named is WT EGFR on HEKn cells (human) (UniProt P00533).
Test [4] deals with human cMET on cells (Hs746T, H596, EBC-1) (human) (UniProt P08581).
human cMET on cells (Hs746T, H596, EBC-1) (human), sequence (P08581 25-1390 limits assumed): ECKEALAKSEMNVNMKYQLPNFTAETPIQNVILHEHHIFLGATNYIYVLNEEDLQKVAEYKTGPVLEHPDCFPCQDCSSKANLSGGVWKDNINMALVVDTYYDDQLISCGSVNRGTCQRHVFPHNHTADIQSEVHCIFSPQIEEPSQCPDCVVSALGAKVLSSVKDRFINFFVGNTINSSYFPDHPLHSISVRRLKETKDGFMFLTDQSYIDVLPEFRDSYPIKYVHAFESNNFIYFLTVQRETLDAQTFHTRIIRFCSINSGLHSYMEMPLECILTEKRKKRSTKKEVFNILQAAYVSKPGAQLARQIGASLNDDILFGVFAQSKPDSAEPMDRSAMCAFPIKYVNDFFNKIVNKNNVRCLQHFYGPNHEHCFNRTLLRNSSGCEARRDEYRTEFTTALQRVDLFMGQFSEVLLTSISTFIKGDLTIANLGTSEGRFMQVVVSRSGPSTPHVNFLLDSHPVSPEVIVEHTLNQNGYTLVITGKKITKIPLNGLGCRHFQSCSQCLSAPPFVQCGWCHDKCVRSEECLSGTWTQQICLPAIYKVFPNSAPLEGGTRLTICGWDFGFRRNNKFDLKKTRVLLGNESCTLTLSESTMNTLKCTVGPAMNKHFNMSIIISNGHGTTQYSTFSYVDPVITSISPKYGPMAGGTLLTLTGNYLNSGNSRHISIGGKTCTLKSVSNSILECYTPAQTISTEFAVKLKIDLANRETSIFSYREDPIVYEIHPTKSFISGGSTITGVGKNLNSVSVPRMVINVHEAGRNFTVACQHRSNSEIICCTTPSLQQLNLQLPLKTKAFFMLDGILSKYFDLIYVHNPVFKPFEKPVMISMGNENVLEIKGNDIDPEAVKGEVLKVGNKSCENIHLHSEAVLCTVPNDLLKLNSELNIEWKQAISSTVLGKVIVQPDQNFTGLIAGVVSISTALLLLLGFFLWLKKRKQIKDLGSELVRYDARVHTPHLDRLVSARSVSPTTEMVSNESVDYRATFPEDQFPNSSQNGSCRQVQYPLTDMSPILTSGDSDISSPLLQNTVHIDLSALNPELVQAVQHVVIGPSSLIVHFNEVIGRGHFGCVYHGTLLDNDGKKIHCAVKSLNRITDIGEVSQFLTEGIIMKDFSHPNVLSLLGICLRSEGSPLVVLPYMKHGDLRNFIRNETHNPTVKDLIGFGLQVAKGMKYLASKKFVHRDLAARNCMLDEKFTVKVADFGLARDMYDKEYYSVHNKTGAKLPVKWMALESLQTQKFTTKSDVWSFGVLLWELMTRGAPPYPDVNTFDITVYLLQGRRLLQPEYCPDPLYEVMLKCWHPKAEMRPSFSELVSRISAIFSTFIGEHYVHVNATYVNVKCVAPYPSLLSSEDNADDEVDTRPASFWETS

In test [1], JNJ-372 (bispecific antibody) returned an IC50, anti-proliferation on H1975 of 0.23 nM and an Imax (%), anti-proliferation on H1975 of 58.4%. Also, in test [2], the IC50, anti-proliferation on H2073 came to 3.46 nM and the Imax (%), anti-proliferation on H2073 is 83%. Also, in test [3], the IC50, anti-proliferation on HEKn cells came to 5.7 nM and the Imax(%), anti-proliferation on HEKn cells was 33.5%. In test [4], this substance gave an Imax (%), anti-proliferation on EBC-1 of 0% and an Imax (%), anti-proliferation on Hs746t of 0%.
In the case of LY3164530 (bispecific antibody), in test [3], the IC50, anti-proliferation on HEKn cells came out at 0.24 nM and the Imax(%), anti-proliferation on HEKn cells came out at 46.2%.
